Results from US12410234B2, “Compositions and methods for retrieving tumor-related antibodies and antigens” (THE TRUSTEES OF THE UNIVERSITY OF PENNSYLVANIA, priority 2018, dated 2025).

How the values were obtained:
BON cells = test: Flow cytometry binding of VLV or VLV-DM1 to BON cells; parameters: species or system human
Experimental: (§1) Scale bar: […]. […] Scale bar: […].

QGP1 cells = test: Flow cytometry binding of VLV or VLV-DM1 to QGP1 cells
Experimental: as §1

[1] = test system: other AML cell lines like HL60, NB4, and U937; test: Recognition of other AML cell lines by THP-1 specific Nbs; assay type: binding, human
Experimental: FIG. 7 is series of a table and graphs depicting the affinity test of VHHs against variant of AML cell lines and patient derived AMLs. The four THP-1 specific Nbs were tested for their recognition to other AML cell lines. + was <0.5 log shift, ++ was <1.0 log shift, +++ was <1.5 log shift, − was no binding.

[2] = target: T1, human full length aminopeptidase N (APN, aka CD13) (Homo sapiens, UniProt P15144); test: Flow cytometry of nanobody phage on HEK293T cells transfected with membrane protein cDNA; assay type: binding; conditions: nanobody-expressing phage
T1 construct: expressed in transfected cells; host or cells: HEK293T
Description: (§2) FIGS. 4A-4F are series of images and graphs illustrating the identification of CD13 as a target to kill AML cells by CAR T cells. FIG. 4A: Experiment schema: About 3000 cell membrane protein cDNAs were purified and transfected into HEK293T cells separately, followed by flow analysis with the nanobodies expressing phage and FITC-labeled secondary antibody against phage M13 protein. FIG. 4B: Flow analysis of nanobodies binding to the HEK293T cells with CD13 overexpression. FIG. 4C: CD13 cDNA expression confirmed in HEK293T cells by western blot. FIG. 4D: Western blot to confirm the gRNA/CRISPR guided CD13 knockout effect in THP-1 cells. Three independent gRNAs were transduced into THP-1 separately, followed by puromycin selection and single individual clone expansion. FIG. 4E: Flow analysis of Nb157 or Nb163 binding CD13 knockout THP-1 cells. FIG. 4F: Killing assay of Nbs CAR T cells to the THP-1 wild type (wt) or THP-1 cd13-ko.
To identify the protein antigens of the isolated nanobodies, about 3000 human cell membrane protein cDNAs were prepared and transfected into HEK293T cells individually, followed by flow cytometry detection with the nanobody-expressing phage and FITC-labeled secondary antibody against phage M13 protein (FIG. 4A). […] As a confirmation, human CD13 cDNA expression was also shown by western blot (FIG. 4C). CD13 is preferentially expressed in acute myeloid blast cells.

[3] = test system: patient-derived AML cells; test: Flow analysis of Nb binding to patient derived AML cells; parameters: species or system human; conditions: patient AML2844
Experimental: FIGS. 5A-5B: Both Nb157 and Nb163 recognized the patient derived AML cells by flow analysis. FIGS. 5C-5D: Both Nb157 and Nb163 CAR T cells specifically killed the patient derived AML cells in vitro in a dose dependent manner. […] In brief, 20 million of Patient derived AML cells were injected into NSG mouse, followed by 3 million of Nb157 CAR T cells or UTD T cells treatment. The survival of mice was monitored. Each group n=10. FIGS. 5F-5I: Patient derived AML in NSG bone marrow and spleen were monitored after Nb157 CAR T cell treatment by staining with anti-human CD45/CD3/CD33, followed by flow cytometry analysis. FIGS. 5J-5K: At the end points of each group of experiment, the mice spleens were harvested and fixed by paraformaldehyde, followed by immunofluorescence staining of the anti-human CD3/CD33 and DAPI (Nuclear).
To further determine whether the Nb157 CAR T cells can also kill the patient-derived AML cells, CD13 expression of the leukemia cells from patient AML2844 was examined. […] Thereafter, the therapeutic effect of the CAR T cells on the mice with the patient-derived AML cells was examined. To this end, the NSG mice were transplanted with the primary AML cells, followed by treatment with either control UTD or Nb157 CAR T cells.

Jurkat cells = test: Flow cytometry binding of nanobodies to Jurkat cells; parameters: species or system human
Description: (§3) FIGS. 1A-1C are series of images and graphs depicting the steps for generating nanobodies that both differentially bind tumor cells and empower CAR T cells to kill the tumor cells. FIG. 1A: Flow chart of AML specific CAR compatible nanobodies in vivo screening. Llama was immunized with AML cell line THP-1. Nanobody library was generated from the llama PMBC including B cells by molecular cloning. Two rounds of conventional cell-based phage display were applied, which took T-ALL cell line Jurkat or chronic myelogenous leukemia (CML) cell line K-562 as negative absorption, followed by one round of count-selection. The resultant THP-1 specific nanobodies were inserted into a chimeric antigen receptor expressing lenti-vector to generate Nb-CAR library. Human primary T cells were transduced by the Nb-CAR library and injected into THP-1 or K562 borne NSG mice to perform the in vivo selection. Nbs that can adapt T cells to enrich in the tumor were PCR-amplified and sequenced. FIG. 1B: 10 million THP-1 cells or 5 million K562 cells were transplanted into NSG mice subcutaneously, followed by treatment of untransduced (UTD) T cells or Nb-lib-CAR T cells. 2 weeks later, Nbs from tumor infiltrated T cells were isolated and identified by PCR amplification. FIG. 1C: Top 5 frequent Nbs in the THP-1 tumor were listed and tested for their recognition to the THP-1 cells, Jurkat cells, or K-562 cells.

THP-1 cells [4] = test: Flow cytometry binding of nanobodies to THP-1 cells; parameters: species or system human
Description: as §3, with “FIG. 1B: 10 million THP-1 cells or 5 million K562 cells were transplanted into NSG mice subcutaneously, followed by treatment of untransduced (UTD) T cells or Nb-lib-CAR T cells. 2 weeks later, Nbs from tumor infiltrated T cells were isolated and identified by PCR amplification. FIG. 1C: Top 5 frequent Nbs in the THP-1 tumor were listed and tested for their recognition to the THP-1 cells, Jurkat cells, or K-562 cells.” left out
FIGS. 6A-6H are series of images and graphs depicting that Nb switch-activated CAR T cells eradicate AML in vivo in a controllable manner. […] The engraftment volumes were monitored by measuring the lengths and widths of the tumors. […] The primary leukemia or CAR T cells in the mouse peripheral blood were monitored by staining with CD33 or CD3 fluorescence labeled antibodies.

[5] = test system: CD13 knockout THP-1 cells; test: Flow analysis of Nb binding to CD13 knockout THP-1 cells; parameters: species or system human; conditions: flow cytometry
Description: as §2
To knockout CD13 in THP-1 cell line, LentiCRISPRv2.0 vector was applied according to the protocol (Sanjana, N. E. et al, (2014) Nature methods 11, 783-784). sgRNA targeting human CD13 were listed as below, sgCD13-1 […] (SEQ ID NO: 14), sgCD13-2 […] (SEQ ID NO: 15), […]. Plasmids were confirmed by sequencing and packaged into lentivirus, followed by infecting THP-1 cells. […]

K562 cells = test: Flow cytometry binding of nanobodies to K562 cells; parameters: species or system human
Description: as §3

THP-1 cells [6] = test: Killing assay of Nb157-PNE-mediated sCAR system; assay type: cell-based, human; conditions: sCAR T to THP-1 2:1, 16 hours
Description: FIGS. 6A-6H are series of images and graphs depicting that Nb switch-activated CAR T cells eradicate AML in vivo in a controllable manner. FIGS. 6A-6B: Schematic diagram of switchable CAR T system. The Nb157 was expressed and purified by fusing with PNE, a fourteen amino acid peptide, either at N terminal or C terminal of the Nanobody. Primary human T cells were engineered by lentivirus transduction of scFv CAR that recognized PNE specifically. FIG. 6C: Test the affinity of Nb157, Nb157-N-PNE or Nb157-C-PNE against THP-1 cells by flow cytometry analysis. FIG. 6D: Killing assay of Nb157-PNE-mediated sCAR system against THP-1 cells in series of switch concentrations. The ratio of sCAR T to THP-1 was 2:1 and assay was performed after 16 hours incubation. FIG. 6E: 10 million THP-1 cells were transplanted into NSG mice subcutaneously to form the 150 mm^3 of tumors. […] The engraftment volumes were monitored by measuring the lengths and widths of the tumors. […] The primary leukemia or CAR T cells in the mouse peripheral blood were monitored by staining with CD33 or CD3 fluorescence labeled antibodies.
Killing assays were performed as previously described (Cao, L. F. et al. (2010) Cytometry A 77, 534-545). […] Quantification were calculated by either Countbright beads or volume.

CD13-/- THP-1 cell lines = test: Killing assay on THP-1 cd13-ko cells; assay type: cell-based, human; conditions: THP-1 cd13-ko vs wild type
Description: as §2
Killing assays were performed as previously described (Cao, L. F. et al. (2010) Cytometry A 77, 534-545). In brief, target cells were labeled by anti-CD33 (BD) for detecting cell number with flow cytometry analysis or labeled by CellTrace Far Red for tracing cell division. Target cells were incubated with effector T cells for 16 hrs at a series of ratios. […] Quantification were calculated by either Countbright beads or volume. […]

T1 sequence (P15144 whole entry): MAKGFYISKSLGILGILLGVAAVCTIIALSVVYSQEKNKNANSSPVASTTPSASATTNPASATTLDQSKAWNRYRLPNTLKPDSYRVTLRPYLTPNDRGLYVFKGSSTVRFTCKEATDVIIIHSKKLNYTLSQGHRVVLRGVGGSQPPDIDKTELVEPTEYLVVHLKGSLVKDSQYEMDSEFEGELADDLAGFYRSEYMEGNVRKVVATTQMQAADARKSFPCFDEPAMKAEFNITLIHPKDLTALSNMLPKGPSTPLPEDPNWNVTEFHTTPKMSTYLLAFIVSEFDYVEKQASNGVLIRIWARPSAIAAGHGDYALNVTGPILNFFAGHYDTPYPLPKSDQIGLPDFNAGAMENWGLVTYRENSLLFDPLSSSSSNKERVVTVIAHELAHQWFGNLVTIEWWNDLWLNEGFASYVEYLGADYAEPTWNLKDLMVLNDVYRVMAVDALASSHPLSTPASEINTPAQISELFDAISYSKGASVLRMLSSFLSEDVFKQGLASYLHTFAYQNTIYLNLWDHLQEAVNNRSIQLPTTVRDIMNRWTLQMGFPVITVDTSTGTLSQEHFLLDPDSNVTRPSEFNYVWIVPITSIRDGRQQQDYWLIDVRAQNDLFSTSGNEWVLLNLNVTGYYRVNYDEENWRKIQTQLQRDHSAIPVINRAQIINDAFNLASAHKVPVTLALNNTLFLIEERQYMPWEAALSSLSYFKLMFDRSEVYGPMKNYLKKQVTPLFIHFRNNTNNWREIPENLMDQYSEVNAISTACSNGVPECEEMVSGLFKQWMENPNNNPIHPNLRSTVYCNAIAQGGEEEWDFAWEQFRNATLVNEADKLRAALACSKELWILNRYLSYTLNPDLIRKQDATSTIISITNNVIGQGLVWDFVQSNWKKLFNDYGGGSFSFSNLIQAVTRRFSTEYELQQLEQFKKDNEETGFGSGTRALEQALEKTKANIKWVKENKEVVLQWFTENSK

Molecule | binding to BON cells (BON cells) | binding to QGP1 cells (QGP1 cells) | binding to other AML cell lines [1] | binding to cells transfected with human CD13 [2] | recognition of patient-derived AML cells [3] | binding to Jurkat cells (Jurkat cells) | binding to THP-1 cells (THP-1 cells [4]) | binding after CD13 knockout in THP-1 [5] | binding to K562 cells (K562 cells) | switch-triggered killing of THP-1 cells by sCAR T cells (THP-1 cells [6]) | killing of target cells after CD13 knockout (CD13-/- THP-1 cell lines)
VLV: VHH1 homodimer connected by a linker (protein, left off: small tags and cut ends, VHH1 homodimer connected by a linker) VHH 1: QVQLQESGGGLVQPGGSTRLSCVSSRTFSYYDMGWFRQAPGKEREFVALLSWNGENAEYSDSVMGRFTVSRGNTQNSVNLQMNNLKPEDTGIYYCAVTHGGARSVRSWGQGTQVTVSS VHH 2: QVQLQESGGGLVQPGGSTRLSCVSSRTFSYYDMGWFRQAPGKEREFVALLSWNGENAEYSDSVMGRFTVSRGNTQNSVNLQMNNLKPEDTGIYYCAVTHGGARSVRSWGQGTQVTVSS | bound to BON cells | but not QGP1 cells |  |  |  |  |  |  |  |  | 
Nb157: THP-1 specific llama nanobody binding CD13, SEQ ID NO: 19 (protein, VHH157) VHH: AAQAAQVQLQESGGGLVQPGGSLSLSCTASGFTFSSYSMAWVRQAPGKGPEWVSGIYPSDGKTRYADFVKGRFSISRDNAKNMLYLQMNNLEPEDTALYYCARGITGLGPRGQGTQVTVSSAA |  |  | also bound other AML cell lines like HL60, NB4, and U937 | bound the cells transfected with human full length aminopeptidase N | detected the CD13 expression on the primary AML cells | but not Jurkat or K562 cells | specifically bound THP-1 cells | CD13 knockout abrogated the binding | but not Jurkat or K562 cells |  | 
Nb157-N-PNE: Nb157 with N-terminal PNE; inducible nanobody switch (protein, left off: small tags and cut ends, Nb157 with N-terminal PNE; inducible nanobody switch) AAQAAQVQLQESGGGLVQPGGSLSLSCTASGFTFSSYSMAWVRQAPGKGPEWVSGIYPSDGKTRYADFVKGRFSISRDNAKNMLYLQMNNLEPEDTALYYCARGITGLGPRGQGTQVTVSSAA |  |  |  |  |  |  |  |  |  | slightly reduced the cytolysis-inducing activity | 
Nb163: THP-1 specific llama nanobody binding CD13, SEQ ID NO: 24 (protein, VHH163) VHH: AAQAAQVQLQESGGGLVQPGGSLRLSCVPSGFTFDGYLIGWFRQAPGSERKAVSCISVNGDRTNYADSVKGRFTISRDNAKNTVYLQMNSLRPNDTAIYYCATRRGNRLYNNNCPYFEYGTWGQGTQVTVSSAA |  |  | also bound other AML cell lines like HL60, NB4, and U937 | bound the cells transfected with human full length aminopeptidase N | detected the CD13 expression on the primary AML cells | but not Jurkat or K562 cells | specifically bound THP-1 cells | CD13 knockout abrogated the binding | but not Jurkat or K562 cells |  | diminished the killing of Nb163 to the targets significantly, but cannot abrogated the effect completely
